In the supplement of paper PMC9112550, “Optimization of the antimicrobial peptide Bac7 by deep mutational scanning” (BMC Biology, 2022):

tested on: Escherichia coli TOP10; test: shrunken log2 fold change of peptide-encoding DNA abundance (4.5 h post-induction vs induction); higher = less antimicrobial activity (less host growth inhibition); conditions: time post-induction: 4.5 h; library: site-saturation at positions 5, 18, 19, 20
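Also: peptides expressed intracellularly from a pBAD plasmid library in pooled LB shake-flask culture, induced with 0.3% L-arabinose, DNA abundance read by NGS, three biological replicates, DESeq2 with apeglm shrinkage.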

Row | Sequence | shrunken log2 fold change
1 | RRIRYRPPRLPRPRPRPNSDPRP | -0.233
2 | RRIRHRPPRLPRPRPRPSCKPRP | -0.609
3 | RRIRMRPPRLPRPRPRPFCTPRP | -0.0819
4 | RRIRWRPPRLPRPRPRPRGWPRP | 1.13
5 | RRIRERPPRLPRPRPRPHTGPRP | -1.1
6 | RRIRRRPPRLPRPRPRPFMRPRP | 0.341
7 | RRIRRRPPRLPRPRPRPMWLPRP | 0.105
8 | RRIRNRPPRLPRPRPRPNNSPRP | -0.376
9 | RRIRQRPPRLPRPRPRPWMEPRP | -3.98e-05
10 | RRIRDRPPRLPRPRPRPAIMPRP | 0.373
11 | RRIRHRPPRLPRPRPRPRGIPRP | -0.0565
12 | RRIRKRPPRLPRPRPRPDRRPRP | 0.18
13 | RRIRPRPPRLPRPRPRPVMHPRP | 0.15
14 | RRIRKRPPRLPRPRPRPTSPPRP | 0.15
15 | RRIRPRPPRLPRPRPRPLIPPRP | -0.19
16 | RRIRLRPPRLPRPRPRPALQPRP | 0.215
17 | RRIRIRPPRLPRPRPRPWPWPRP | 0.0338
18 | RRIRDRPPRLPRPRPRPNIPPRP | -0.623
19 | RRIRTRPPRLPRPRPRPMYHPRP | -0.0615
20 | RRIRLRPPRLPRPRPRPKKDPRP | 0.0575
21 | RRIRTRPPRLPRPRPRPKVDPRP | 0.195
22 | RRIRARPPRLPRPRPRPHSVPRP | 0.0268
23 | RRIRHRPPRLPRPRPRPTISPRP | -0.495
24 | RRIRYRPPRLPRPRPRPKEVPRP | 0.0274
25 | RRIRFRPPRLPRPRPRPTCGPRP | 0.00559

Row | Sequence | shrunken log2 fold change
26 | RRIRQRPPRLPRPRPRPKNLPRP | -0.186
27 | RRIRKRPPRLPRPRPRPWMLPRP | -0.266
28 | RRIRHRPPRLPRPRPRPREFPRP | 0.0275
29 | RRIRTRPPRLPRPRPRPKSSPRP | -0.0371
30 | RRIRGRPPRLPRPRPRPNCCPRP | 0.245
31 | RRIRIRPPRLPRPRPRPYLEPRP | -0.849
32 | RRIRPRPPRLPRPRPRPFQEPRP | -0.185
33 | RRIRDRPPRLPRPRPRPQFRPRP | -0.296
34 | RRIRGRPPRLPRPRPRPMAPPRP | 1.2
35 | RRIRKRPPRLPRPRPRPRQDPRP | -0.0954
36 | RRIRRRPPRLPRPRPRPTFKPRP | 0.214
37 | RRIRCRPPRLPRPRPRPHICPRP | -0.272
38 | RRIRRRPPRLPRPRPRPWSAPRP | 0.131
39 | RRIRLRPPRLPRPRPRPLDDPRP | -0.144
40 | RRIRIRPPRLPRPRPRPMMIPRP | -0.0366
41 | RRIRWRPPRLPRPRPRPEQHPRP | 0.339
42 | RRIRQRPPRLPRPRPRPPVIPRP | -0.498
43 | RRIRIRPPRLPRPRPRPGFCPRP | 0.135
44 | RRIRYRPPRLPRPRPRPEIDPRP | -0.0347
45 | RRIRCRPPRLPRPRPRPCMIPRP | -0.23
46 | RRIRRRPPRLPRPRPRPRDTPRP | 0.6
47 | RRIRYRPPRLPRPRPRPNLNPRP | -0.393
48 | RRIRDRPPRLPRPRPRPEPWPRP | 0.32
49 | RRIRFRPPRLPRPRPRPRFRPRP | -0.0973
50 | RRIRARPPRLPRPRPRPPGEPRP | 0.381

Row | Sequence | shrunken log2 fold change
51 | RRIRVRPPRLPRPRPRPDHWPRP | 0.152
52 | RRIRLRPPRLPRPRPRPCPNPRP | 0.0236
53 | RRIRPRPPRLPRPRPRPKDPPRP | 0.165
54 | RRIRTRPPRLPRPRPRPSNHPRP | -0.666
55 | RRIRFRPPRLPRPRPRPLRWPRP | 0.59
56 | RRIRQRPPRLPRPRPRPNMDPRP | -0.225
57 | RRIRWRPPRLPRPRPRPPKWPRP | 0.627
58 | RRIRLRPPRLPRPRPRPNFRPRP | -0.195
59 | RRIRDRPPRLPRPRPRPAEIPRP | 0.184
60 | RRIRCRPPRLPRPRPRPHKSPRP | 0.139
61 | RRIRERPPRLPRPRPRPWKAPRP | 0.0158
62 | RRIRNRPPRLPRPRPRPRWKPRP | -0.109
63 | RRIRSRPPRLPRPRPRPMQMPRP | 0.512
64 | RRIRNRPPRLPRPRPRPTWFPRP | 0.415
65 | RRIRFRPPRLPRPRPRPVKNPRP | -0.0401
66 | RRIRHRPPRLPRPRPRPRMDPRP | 0.0986
67 | RRIRMRPPRLPRPRPRPNVAPRP | 0.099
68 | RRIRTRPPRLPRPRPRPVTLPRP | -0.37
69 | RRIRYRPPRLPRPRPRPSKDPRP | -0.642
70 | RRIRGRPPRLPRPRPRPHQNPRP | 0.58
71 | RRIRIRPPRLPRPRPRPILCPRP | -0.0872
72 | RRIRNRPPRLPRPRPRPDALPRP | 0.0233
73 | RRIRFRPPRLPRPRPRPPVRPRP | 0.443
74 | RRIRLRPPRLPRPRPRPMGCPRP | 0.031
75 | RRIRYRPPRLPRPRPRPNDSPRP | -0.349

Row | Sequence | shrunken log2 fold change
76 | RRIRTRPPRLPRPRPRPVHAPRP | -0.00294
77 | RRIRLRPPRLPRPRPRPCQVPRP | -0.128
78 | RRIRIRPPRLPRPRPRPLPRPRP | 0.2
79 | RRIRGRPPRLPRPRPRPPTAPRP | 1.01
80 | RRIRSRPPRLPRPRPRPVWKPRP | -0.1
81 | RRIRMRPPRLPRPRPRPMMMPRP | -0.0717
82 | RRIRIRPPRLPRPRPRPQQMPRP | -0.0189
83 | RRIRYRPPRLPRPRPRPRWGPRP | 0.12
84 | RRIRPRPPRLPRPRPRPFLMPRP | -0.349
85 | RRIRHRPPRLPRPRPRPRLSPRP | -0.0962
86 | RRIRQRPPRLPRPRPRPMNPPRP | -0.0843
87 | RRIRMRPPRLPRPRPRPAICPRP | 0.171
88 | RRIRERPPRLPRPRPRPPFYPRP | -0.367
89 | RRIRKRPPRLPRPRPRPHEKPRP | 1.1
90 | RRIRGRPPRLPRPRPRPKGSPRP | 1.03
91 | RRIRIRPPRLPRPRPRPNNYPRP | -0.996
92 | RRIRGRPPRLPRPRPRPFYWPRP | 0.161
93 | RRIRRRPPRLPRPRPRPEWPPRP | 0.387
94 | RRIRGRPPRLPRPRPRPHVEPRP | 0.36
95 | RRIRDRPPRLPRPRPRPRDWPRP | 0.619
96 | RRIRIRPPRLPRPRPRPGEVPRP | 0.0961
97 | RRIRARPPRLPRPRPRPPCKPRP | 0.204
98 | RRIRLRPPRLPRPRPRPWIAPRP | 0.0439
99 | RRIRVRPPRLPRPRPRPIPKPRP | -0.131
100 | RRIRCRPPRLPRPRPRPNAPPRP | 0.367

Row | Sequence | shrunken log2 fold change
101 | RRIRDRPPRLPRPRPRPGTYPRP | -0.227
102 | RRIRNRPPRLPRPRPRPPMQPRP | 0.0237
103 | RRIRRRPPRLPRPRPRPDKPPRP | 0.583
104 | RRIRLRPPRLPRPRPRPCWRPRP | 0.0285
105 | RRIRYRPPRLPRPRPRPPVTPRP | -0.0969
106 | RRIRLRPPRLPRPRPRPFKEPRP | -0.169
107 | RRIRMRPPRLPRPRPRPVYDPRP | -0.399
108 | RRIRSRPPRLPRPRPRPRCEPRP | 0.152
109 | RRIRTRPPRLPRPRPRPAHMPRP | -0.0928
110 | RRIRDRPPRLPRPRPRPYPIPRP | 0.0369
111 | RRIRQRPPRLPRPRPRPAFFPRP | 0.11
112 | RRIRYRPPRLPRPRPRPTKRPRP | -0.028
113 | RRIRQRPPRLPRPRPRPKHSPRP | -0.0171
114 | RRIRSRPPRLPRPRPRPTGEPRP | 0.0361
115 | RRIRWRPPRLPRPRPRPDFNPRP | -0.0747
116 | RRIRPRPPRLPRPRPRPRVPPRP | 0.342
117 | RRIRARPPRLPRPRPRPMCWPRP | 0.737
118 | RRIRERPPRLPRPRPRPFPPPRP | -0.38
119 | RRIRGRPPRLPRPRPRPNDWPRP | 0.235
120 | RRIRWRPPRLPRPRPRPQFPPRP | 0.0157
121 | RRIRGRPPRLPRPRPRPTHFPRP | 0.71
122 | RRIRDRPPRLPRPRPRPDRQPRP | 0.0286
123 | RRIRDRPPRLPRPRPRPWICPRP | -0.298
124 | RRIRGRPPRLPRPRPRPVKMPRP | 0.127
125 | RRIRSRPPRLPRPRPRPTLMPRP | 0.091
